Tests used:
[1] = target: T1, Strep-Tactin M2 streptavidin mutein covalently immobilised on chromatography resin (Streptomyces avidinii, UniProt P22629 38-163, covalently coupled to the resin (CNBr-activated Sephadex G-50, agarose, or epoxy-activated polystyrene)); assay: loading of Fab on Strep-Tactin Sephadex G50 resin, 20 min at 4 °C
T1 construct: also called immobilized Strep-Tactin; STREP-TACTIN M2 multimer reagent

[2] = target: T2, CD4 on the surface of human T cells (human, UniProt P01730 26-458); assay: affinity column cell selection from apheresis, surface marker MFI of the collected cells by flow cytometry, 24 h with or without anti-CD3/anti-CD28 oligomeric reagent
T2 construct: whole, on cells; also called selection marker CD4

B1: anti-CD4 Fab fragment m13B8.2 with Twin Strep-Tag (Fab, V domains shown)
VH: QVQLKQSGPGLVQPSQSLSITCTVSGFSLTTFGVHWVRQSPGKGLEWLGVIWASGITDYNVPFMSRLSITKDNSKSQVFFKLNSLQPDDTAIYYCAKNDPGTGFAYWGQGTLVTVSA
VL: DIQMTQSPASLSASVGETVTFTCRASEMIYSYLAWYQQKQGKSPQLLVHDAKTLAEGVPSRFSGGGSGTQFSLKINTLQPEDFGTYYCQAHYGNPPTFGGGTKLEIKR
Does B1 bind [1]?
Result: binds

Does B1 bind [2]?
Result: binds

Source: patent US20250237628A1 (JUNO THERAPEUTICS, published 2025)
